The target of this assay is Hp-chimMotB (soluble chimeric variant of Helicobacter pylori MotB with the transmembrane helix replaced by a GCN4-derived leucine zipper) (S. cerevisiae | Helicobacter pylori) (UniProt P03069). The assay can be described thus: SAXS; Hp-chimMotB at 0.05, 0.11 and 0.25 mg/mL in 100 mM sodium acetate pH 4.6, 200 mM NaCl, room temperature; MW from I(0) (Guinier, P(r)) and Porod volume compared with the theoretical dimer mass.

The substance “Hp-chimMotB (soluble chimeric variant of Helicobacter pylori MotB with the transmembrane helix replaced by a GCN4-derived leucine zipper) (from UniProt P03069 249-279; P56427 41-257)” yielded a stoichiometry N of 2.

As a reminder, the stoichiometry N is the number of molecules, sites or subunits per partner or assembly.

The values are drawn from PMC5647336.
